These results are taken from publication PMC6160459 (Scientific Reports, 2018).

For the assay, the target named is T1, α4 integrin (CD49d) on JeKo-1 cells (Homo sapiens, endogenous on JeKo-1 cells, UniProt P13612).
T1 construct: integrin alpha-4 (CD49d); also called α4 chain of α4β1 integrin (VLA-4) and α4β7 integrin (LPAM-1); source: endogenous, on JeKo-1 cells
The assay can be described thus: flow cytometry on cells; Ntz-01 premixed with natalizumab 1 h on ice in 5% FBS/DPBS/0.05% NaN3, then CD49d+ JeKo-1 cells 20 m on ice; cell-bound natalizumab detected with anti-human IgG4 Fc Alexa Fluor 647. The note with it: one partner purified. (Flow cytometry measures light scatter and fluorescence of single cells or particles in a stream.)

B1: Natalizumab (antibody, V domains shown)
VH: QVQLVQSGAEVKKPGASVKVSCKASGFNIKDTYIHWVRQAPGQRLEWMGRIDPANGYTKYDPKFQGRVTITADTSASTAYMELSSLRSEDTAVYYCAREGYYGNYGVYAMDYWGQGTLVTVSS
VL: DIQMTQSPSSLSASVGDRVTITCKTSQDINKYMAWYQQTPGKAPRLLIHYTSALQPGIPSRFSGSGSGRDYTFTISSLQPEDIATYYCLQYDNLWTFGQGTKVEIK
notes: humanized heavy-chain variable region; light chain; IgG4; also called Tysabri; source: obtained from the UCSD Moores Cancer Center Pharmacy
For the molecule B1, the binding result is “binds”.
